Consider one molecule from paper PMC7049810, “Outer membrane lipoprotein NlpI scaffolds peptidoglycan hydrolases within multi‐enzyme complexes in Escherichia coli” (The EMBO Journal, 2020).

Data set [1] deals with the molecule itself. The data set can be described thus: AUC; sedimentation velocity, 45,000 rpm, 20°C, 25 mM HEPES/NaOH, 150 mM NaCl, pH 7.5; NlpI 0.3-1.2 mg/ml; c(s) model.
Data set [2] concerns the target T1, PBP7, purified (Escherichia coli, UniProt P0AFI5 26-310, where used as the labelled protein in MST: NT647 RED-NHS dye on amines).
T1 construct: PBP7 (DD-endopeptidase) of E. coli; source: E. coli BL21 (λDE3), purified (HisTrap HP, Superdex 200)
T1 sequence (looked up): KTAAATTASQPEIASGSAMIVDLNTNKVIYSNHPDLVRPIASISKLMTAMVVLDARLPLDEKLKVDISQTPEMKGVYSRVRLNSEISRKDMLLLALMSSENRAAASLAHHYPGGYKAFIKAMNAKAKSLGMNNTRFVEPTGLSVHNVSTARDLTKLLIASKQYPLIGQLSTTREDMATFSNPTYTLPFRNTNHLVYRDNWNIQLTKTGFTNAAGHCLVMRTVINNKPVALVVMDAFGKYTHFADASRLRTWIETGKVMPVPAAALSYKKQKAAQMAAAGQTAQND
The experiment in a line: pull-down; Ni2+-NTA agarose beads; His-tagged protein with untagged or native ligand, overnight at 4°C; 10 mM HEPES/NaOH, 10 mM MgCl2, 150 mM NaCl, 0.05% Triton X-100, pH 7.5; washes with 30 mM imidazole; SDS-PAGE. The following applies: both partners purified.

Data set [3] concerns the molecule itself. The data set can be described thus: MST; titration: NT647-labelled protein against a two-fold serial dilution (16 steps) of unlabelled ligand; 25 mM HEPES/NaOH, 150 mM NaCl, 0.05% Triton X-100, pH 7.5; Monolith NT.115; apparent constants; for NlpI with itself: dimer to monomers.
Data set [4] has as its target T2, MepM (Escherichia coli, UniProt P0AFS9 41-440).
T2 construct: Peptidoglycan endopeptidase MepM of E. coli; source: purified as previously described in Moré et al (2019)
T2 sequence (looked up): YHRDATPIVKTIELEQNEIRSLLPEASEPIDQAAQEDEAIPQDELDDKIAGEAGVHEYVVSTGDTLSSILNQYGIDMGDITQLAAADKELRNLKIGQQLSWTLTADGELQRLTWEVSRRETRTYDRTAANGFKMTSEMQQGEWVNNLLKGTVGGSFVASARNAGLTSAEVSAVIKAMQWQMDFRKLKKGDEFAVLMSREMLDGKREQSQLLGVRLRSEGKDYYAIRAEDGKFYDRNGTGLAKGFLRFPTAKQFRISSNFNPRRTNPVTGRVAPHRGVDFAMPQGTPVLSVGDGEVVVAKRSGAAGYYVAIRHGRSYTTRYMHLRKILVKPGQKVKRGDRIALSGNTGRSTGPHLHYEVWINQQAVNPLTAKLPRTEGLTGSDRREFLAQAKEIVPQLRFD
The description is as above. The conditions noted are these: both partners purified.

The target of data set [5] is T3, PBP4, native, purified (Escherichia coli, UniProt P24228 21-477, where used as the labelled protein in MST: NT647 RED-NHS dye on amines).
T3 construct: PBP4 (DD-endopeptidase) of E. coli, 'native PBP4' purified after Kishida et al (2006); Untagged ('native'); source: E. coli BL21 (λDE3), purified (HiTrap Q, hydroxyapatite, Superdex 200)
Described as above. The following applies: both partners purified.

T3 sequence (P24228 21-477): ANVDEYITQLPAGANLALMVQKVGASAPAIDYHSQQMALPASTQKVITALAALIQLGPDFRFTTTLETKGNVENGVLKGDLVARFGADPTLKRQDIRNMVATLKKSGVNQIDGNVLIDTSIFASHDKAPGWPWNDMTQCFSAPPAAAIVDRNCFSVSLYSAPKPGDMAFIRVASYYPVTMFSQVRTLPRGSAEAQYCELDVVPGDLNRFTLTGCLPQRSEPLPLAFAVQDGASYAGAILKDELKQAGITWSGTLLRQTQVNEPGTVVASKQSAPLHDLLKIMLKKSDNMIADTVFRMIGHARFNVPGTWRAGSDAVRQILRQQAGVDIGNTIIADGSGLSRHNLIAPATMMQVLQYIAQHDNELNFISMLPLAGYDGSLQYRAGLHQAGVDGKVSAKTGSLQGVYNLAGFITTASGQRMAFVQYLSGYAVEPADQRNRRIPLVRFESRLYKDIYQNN

B1: NlpI, soluble version lacking its membrane anchor (natural protein, Escherichia coli)
chain: SNTSWRKSEVLAVPLQPTLQQEVILARMEQILASRALTDDERAQLLYERGVLYDSLGLRALARNDFSQALAIRPDMPEVFNYLGIYLTQAGNFDAAYEAFDSVLELDPTYNYAHLNRGIALYYGGRDKLAQDDLLAFYQDDPNDPFRSLWLYLAEQKLDEKQAKEVLKQHFEKSDKEQWGWNIVEFYLGNISEQTLMERLKADATDNTSLAEHLSETNFYLGKYYLSLGDLDSATALFKLAVANNVHNFVEHRYALLELSLLGQDQDDLAESDQQ
modifications: where used as fl-NlpI in MST: NT647 RED-NHS dye on amines
notes: Outer membrane lipoprotein NlpI of E. coli, soluble version lacking its membrane anchor; Homodimer by AUC; also called fl-NlpI (fluorescently labelled); His-NlpI; source: E. coli BL21 (λDE3), purified (HisTrap HP, Superdex 200)
By stoichiometry N is commonly meant the number of molecules, sites or subunits per partner or assembly. With B1, the “stoichiometry N” value in data set [1] worked out at 2. Moreover, in data set [2], the binding result is “binds”. The values for the Kd in data set [3], in data set [4] and in data set [5] were 126 nM, 152 nM and 177 nM, respectively.
